# Source: US20040209330A1 (ZymoGenetics, published 2004)
# Several values for one entry are separate records, joined by “and”; a condition that tells them apart may be missing. Equal values may be shown once.
# T1: CRF2-4/IL-22RA heterodimeric receptor on BaF3/CRF2-4/IL-22RA cells (human, UniProt Q08334 20-325, limits assumed)
# T1 sequence 1: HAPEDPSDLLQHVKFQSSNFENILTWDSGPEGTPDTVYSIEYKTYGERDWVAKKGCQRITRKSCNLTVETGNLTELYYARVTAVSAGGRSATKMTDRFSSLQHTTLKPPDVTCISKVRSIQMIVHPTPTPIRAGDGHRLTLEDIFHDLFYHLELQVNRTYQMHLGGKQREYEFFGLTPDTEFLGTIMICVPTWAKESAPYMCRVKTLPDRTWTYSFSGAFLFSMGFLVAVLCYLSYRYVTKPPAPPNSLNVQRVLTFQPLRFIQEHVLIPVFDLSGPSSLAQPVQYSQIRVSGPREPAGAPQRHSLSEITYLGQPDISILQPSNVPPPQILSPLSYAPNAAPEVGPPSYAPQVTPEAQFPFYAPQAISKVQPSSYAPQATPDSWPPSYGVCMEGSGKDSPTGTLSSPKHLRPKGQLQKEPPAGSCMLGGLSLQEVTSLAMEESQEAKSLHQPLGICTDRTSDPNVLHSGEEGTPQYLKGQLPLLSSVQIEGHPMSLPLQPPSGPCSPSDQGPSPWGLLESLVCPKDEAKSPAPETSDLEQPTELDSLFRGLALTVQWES
# T1 sequence 2: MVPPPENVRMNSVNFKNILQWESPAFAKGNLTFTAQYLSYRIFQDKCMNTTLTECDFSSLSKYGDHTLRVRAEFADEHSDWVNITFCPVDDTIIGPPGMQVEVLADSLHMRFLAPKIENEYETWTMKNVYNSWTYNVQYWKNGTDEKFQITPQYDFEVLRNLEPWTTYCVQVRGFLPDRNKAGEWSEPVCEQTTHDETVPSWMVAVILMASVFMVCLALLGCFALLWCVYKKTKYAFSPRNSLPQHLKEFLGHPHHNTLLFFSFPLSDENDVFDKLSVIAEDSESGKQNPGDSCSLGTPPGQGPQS
# Biological target: T1, CRF2-4/IL-22RA heterodimeric receptor …
# Experiment: cell-based or functional assay
binder,measurement,value
"IL-22-CEE (human IL-22 polypeptide with C-terminal GluGlu (EE) tag, purified from BHK 570 cells) (ligand) LLLALLVQGGAAAPISSHCRLDKSNFQQPYITNRTFMLAKEASLADNNTDVRLIGEKLFHGVSMSERCYLMKQVLNFTLEEVLFPQSDRFQPYMQEVVPFLARLSNRLSTCHIEGDDLHIQRNVQKLKDTVKKLGESGEIKAIGELEYMPME",proliferation of BaF3/CRF2-4/IL-22RA cells (Alamar Blue),~15 fold over background and 2 fold induction
